Reference: patent US20190038704A1 (SANFORD BURNHAM PREBYS MEDICAL DISCOVERY INSTITUTE, published 2019)
Bridge positions count the residues as written; N and C are the ends. Square brackets hold non-standard residues; d marks the D form. Ends that are not written are not given here. βAla = NCCC(=O)O

B1: APY.am (peptide)
peptide: APYCVYRGSWSC-NH2
modifications: disulfide 4-12
notes: C-terminally amidated APY
B2: Y-βAla8.am (peptide)
peptide: YCVYR[βAla]SWSC-NH2
modifications: disulfide 2-10 (inferred)
notes: numbers may be shifted
B3: APY-DAla8.am (peptide)
peptide: APYCVYRXSWSC
modifications: D-Ala at position 8; C-terminal amide; disulfide bridge Cys4-Cys12
B4: APY-Aib8.am (peptide)
peptide: APYCVYRXSWSC
modifications: aminoisobutyric acid (Aib) at position 8; C-terminal amide; disulfide bridge Cys4-Cys12
B5: APY-Lys7-βAla8.am (peptide)
peptide: APYCVYK[βAla]SWSC-NH2
modifications: disulfide 4-12 (inferred)
notes: also called APYCVYKβASWSC-am
B6: APY-βAla8.am (peptide)
peptide: APYCVYRXSWSC
modifications: βAla (3-aminopropanoic acid) at position 8; C-terminal amide; disulfide bridge Cys4-Cys12
B7: KY-βAla8.am (peptide)
peptide: KYCVYR[βAla]SWSC-NH2
modifications: disulfide 3-11 (inferred)
notes: numbers may be shifted
B8: ac.KY-βAla8.am (peptide)
peptide: Ac-KYCVYR[βAla]SWSC-NH2
modifications: disulfide 3-11 (inferred)
notes: numbers may be shifted
B9: βAla1-PY.am (peptide)
peptide: XPYCVYRGSWSC
modifications: βAla at position 1; C-terminal amide; disulfide bridge Cys4-Cys12
B10: DAla1-PY.am (peptide)
peptide: XPYCVYRGSWSC
modifications: D-Ala at position 1; C-terminal amide; disulfide bridge Cys4-Cys12

What was measured:
[1] = target: T1, mouse EphA4 ectodomain fused to Fc (mouse, UniProt Q03137 20-547); assay: competition ELISA: ephrin-A5 AP binding to immobilized EphA4 Fc
T1 construct: extracellular domain; Defined as 'EphA4 Fc; also called EphA4 Fc; not shown: Fc portion
T1 sequence (Q03137 20-547): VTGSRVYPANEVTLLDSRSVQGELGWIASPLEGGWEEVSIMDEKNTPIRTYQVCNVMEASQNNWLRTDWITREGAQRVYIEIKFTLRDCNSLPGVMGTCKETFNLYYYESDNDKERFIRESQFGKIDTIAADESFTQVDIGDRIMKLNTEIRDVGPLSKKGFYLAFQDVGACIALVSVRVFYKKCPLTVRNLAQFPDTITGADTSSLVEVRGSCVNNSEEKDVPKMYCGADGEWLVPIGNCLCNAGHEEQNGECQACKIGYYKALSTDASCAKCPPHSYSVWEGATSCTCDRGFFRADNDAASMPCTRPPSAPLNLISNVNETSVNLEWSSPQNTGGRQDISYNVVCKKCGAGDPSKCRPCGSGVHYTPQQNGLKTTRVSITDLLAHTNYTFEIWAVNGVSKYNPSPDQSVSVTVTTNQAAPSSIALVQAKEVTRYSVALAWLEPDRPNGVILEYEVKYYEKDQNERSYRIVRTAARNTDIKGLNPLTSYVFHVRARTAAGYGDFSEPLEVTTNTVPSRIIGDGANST
Protocol: OD₄₀₅ was measured and the absorbance from wells coated with Fc was subtracted as background.

[2] = target: EphA4 in stably transfected human embryonal kidney (HEK293) cells; assay: cell-based or functional assay

| IC50 [1] | IC50 of inhibition of ephrin-A5-induced EphA4 tyrosine phosphorylation in HEK293 cells [2] | Binder |
| --- | --- | --- |
| 280 nM | – | B1 |
| 1470 nM | – | B2 |
| 280 nM | – | B3 |
| 2600 nM | – | B4 |
| 68 nM | – | B5 |
| – | ~300 nM | B6 |
| 260 nM | – | B7 |
| 1160 nM | – | B8 |
| 680 nM | – | B9 |
| 1100 nM | – | B10 |
